Results on two molecules are retold here after paper PMC6642015 (Cell chemical biology, 2019).

One test addresses T1, human MCM-CblA complex (Homo sapiens, UniProt Q8IVH4).
T1 sequence (Q8IVH4 66-418 limits assumed): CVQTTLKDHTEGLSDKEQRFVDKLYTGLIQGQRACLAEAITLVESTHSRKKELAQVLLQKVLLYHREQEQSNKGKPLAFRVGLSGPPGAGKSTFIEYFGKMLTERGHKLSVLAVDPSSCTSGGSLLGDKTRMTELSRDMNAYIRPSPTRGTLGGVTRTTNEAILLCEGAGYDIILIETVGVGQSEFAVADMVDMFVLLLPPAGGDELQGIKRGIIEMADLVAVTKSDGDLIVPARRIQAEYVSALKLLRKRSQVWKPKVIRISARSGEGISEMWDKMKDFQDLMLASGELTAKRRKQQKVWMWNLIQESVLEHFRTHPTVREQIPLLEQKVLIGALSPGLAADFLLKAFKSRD
T1 sequence (P22033 33-750 partner): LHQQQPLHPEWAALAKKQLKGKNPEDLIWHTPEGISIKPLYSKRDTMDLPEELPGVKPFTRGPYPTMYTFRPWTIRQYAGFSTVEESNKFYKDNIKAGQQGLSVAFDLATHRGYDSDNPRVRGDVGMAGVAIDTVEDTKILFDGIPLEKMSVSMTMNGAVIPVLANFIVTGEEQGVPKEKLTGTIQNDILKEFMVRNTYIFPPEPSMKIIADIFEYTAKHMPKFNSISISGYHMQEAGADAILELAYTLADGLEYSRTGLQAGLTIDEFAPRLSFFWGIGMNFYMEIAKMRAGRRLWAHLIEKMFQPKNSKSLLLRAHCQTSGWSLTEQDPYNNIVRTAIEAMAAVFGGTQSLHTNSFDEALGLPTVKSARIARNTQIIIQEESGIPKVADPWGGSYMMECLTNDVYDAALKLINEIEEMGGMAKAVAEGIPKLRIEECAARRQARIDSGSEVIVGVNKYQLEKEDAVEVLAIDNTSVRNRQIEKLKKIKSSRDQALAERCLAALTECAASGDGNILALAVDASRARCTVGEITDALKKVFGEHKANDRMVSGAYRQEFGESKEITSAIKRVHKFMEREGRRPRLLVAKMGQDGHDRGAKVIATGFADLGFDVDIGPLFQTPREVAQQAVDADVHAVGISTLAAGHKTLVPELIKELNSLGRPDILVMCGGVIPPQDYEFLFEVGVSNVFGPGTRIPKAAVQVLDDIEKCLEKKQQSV
The test can be described thus: gel filtration and negative stain EM. The class given is binding. To be noted: MCM 25 μM, CblA 50 μM, GMPPCP 500 μM. On the technique in general: In gel filtration, larger molecules generally elute earlier.

The next test addresses T2, human CblA G278D (human, UniProt Q8IVH4 72-418, G278D).
T2 sequence: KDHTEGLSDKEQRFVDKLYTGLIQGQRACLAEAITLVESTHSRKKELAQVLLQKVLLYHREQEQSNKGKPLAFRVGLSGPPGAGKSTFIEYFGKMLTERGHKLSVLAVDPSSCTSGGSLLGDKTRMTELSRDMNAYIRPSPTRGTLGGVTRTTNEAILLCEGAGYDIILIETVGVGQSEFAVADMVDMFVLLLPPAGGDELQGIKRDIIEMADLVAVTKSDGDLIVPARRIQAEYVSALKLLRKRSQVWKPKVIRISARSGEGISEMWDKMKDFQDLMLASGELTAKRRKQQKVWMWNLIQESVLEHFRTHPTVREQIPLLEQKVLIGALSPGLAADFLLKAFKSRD
The experiment in a line: cell-based or functional assay.

The target of the next test is T3, human CblA Q273A (human, UniProt Q8IVH4 72-418, Q273A).
T3 sequence: T2 sequence with Q202A, D207G
The test can be described thus: cell-based or functional assay.

For test [1], the target named is T4, human CblA, wild type (human, UniProt Q8IVH4 72-418).
T4 sequence: T2 sequence with D207G
The experiment in a line: cell-based or functional assay.

Another test deals with T5, human CblA G274S (human, UniProt Q8IVH4 72-418, G274S).
T5 sequence: T2 sequence with G203S, D207G
The experiment in a line: cell-based or functional assay.

The next test addresses T6, human CblA K276E (human, UniProt Q8IVH4 72-418, K276E).
T6 sequence: T2 sequence with K205E, D207G
The test can be described thus: cell-based or functional assay.

For the next test, the target named is T7, human CblA K276A (human, UniProt Q8IVH4 72-418, K276A).
T7 sequence: T2 sequence with K205A, D207G
The test can be described thus: cell-based or functional assay.

Test [2] deals with T4, human CblA, wild type. The experiment in a line: SEC-MALS.

Changes are numbered by the printed parent chain.

Consider `Nc1nc2c(ncn2[C@@H]2O[C@H](COP(=O)(O)OP(=O)(O)CP(=O)(O)O)[C@@H](O)[C@H]2O)c(=O)[nH]1` [GMPPCP], for which the “gel filtration and negative stain EM; block of AdoCbl transfer” value at human MCM-CblA complex is on record as “higher order oligomeric peak seen in the presence of GMPPCP”.

B1: human methylmalonyl-CoA mutase (enzyme, UniProt P22033 33-750, looked up)
chain: T1 sequence (P22033 33-750 partner)
In the case of B1, the “GTPase activity of CblA in the presence of MCM (GAP activation)” value with human CblA G278D was found to be 3.07 min⁻¹; with human CblA Q273A, 0.86 min⁻¹; in the test with human CblA, wild type [1], 2.78 min⁻¹; in the test with human CblA G274S, 1.04 min⁻¹; with human CblA K276E it was 0.92 min⁻¹; with human CblA K276A it was 2.98 min⁻¹. For the same molecule, the “stoichiometry N” value in the test with human CblA, wild type [2] was 2 MCM (dimer) per CblA (dimer).

Broadly, the stoichiometry N is the number of molecules, sites or subunits per partner or assembly.
